Two molecules from patent publication US20050069530A1 can be followed below.

What all share (assay): cell-based or functional assay
Assay [1] deals with T1, human recombinant cytosolic PLA2 (cPLA2) (human), P47712.
T1 chain: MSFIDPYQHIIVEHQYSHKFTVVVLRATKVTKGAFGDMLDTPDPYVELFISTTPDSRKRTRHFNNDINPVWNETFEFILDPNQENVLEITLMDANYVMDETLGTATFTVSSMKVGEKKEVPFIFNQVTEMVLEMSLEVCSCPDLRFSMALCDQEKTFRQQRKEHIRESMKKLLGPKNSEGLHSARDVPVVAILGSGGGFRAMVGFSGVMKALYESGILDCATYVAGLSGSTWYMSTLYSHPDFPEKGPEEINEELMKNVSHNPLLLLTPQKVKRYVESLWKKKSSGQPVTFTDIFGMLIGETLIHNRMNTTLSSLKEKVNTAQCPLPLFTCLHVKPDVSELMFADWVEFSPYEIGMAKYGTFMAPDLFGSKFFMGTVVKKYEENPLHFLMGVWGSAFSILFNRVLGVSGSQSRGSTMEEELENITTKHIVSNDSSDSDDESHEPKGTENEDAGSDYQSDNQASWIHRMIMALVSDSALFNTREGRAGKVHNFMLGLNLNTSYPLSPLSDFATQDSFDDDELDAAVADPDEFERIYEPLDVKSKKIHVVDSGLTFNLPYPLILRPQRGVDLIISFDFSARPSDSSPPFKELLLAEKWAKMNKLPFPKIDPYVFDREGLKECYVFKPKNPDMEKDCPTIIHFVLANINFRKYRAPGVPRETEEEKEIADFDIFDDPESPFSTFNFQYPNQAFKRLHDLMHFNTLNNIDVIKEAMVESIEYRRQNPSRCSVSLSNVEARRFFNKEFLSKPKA

A further assay deals with crotoxin B, P62022.
Assay [2] addresses T2, human type IIA sPLA2 (human), P14555.
T2 chain: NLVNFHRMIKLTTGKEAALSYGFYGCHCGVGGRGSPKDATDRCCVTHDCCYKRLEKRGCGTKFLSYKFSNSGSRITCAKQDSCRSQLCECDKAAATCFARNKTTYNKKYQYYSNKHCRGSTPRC

On to LGRVDIHVWDGVYIRGR (modifications not checked) [P-NT.II], for which the selectivity of enzyme inhibition, sPLA2 over cPLA2 in assay [1] was 5 fold. Besides, the IC50 of PLA2 enzyme inhibition (labeled E. coli membrane assay) with crotoxin B, P62022 is 4.9 µM. Further, the IC50 of sPLA2 enzyme inhibition (3H-labelled E. coli membranes as substrate) in assay [2] was 5.3 µM.

As to YRRVDIGLRVWHDLGVG (modifications not checked) [Scrambled P-NT.II], the IC50 of PLA2 enzyme inhibition (labeled E. coli membrane assay) in the assay with crotoxin B, P62022 is greater than 250 µM.
